This note sets out measurements from paper PMC8386461.

Test in all cases: SPR
For orientation: In SPR one partner is held on a chip, and binding of the other changes the refractive index at the surface.

Assay [1] concerns the target Glycosylated human basigin (BSG-2, mammalian cell-expressed) (human).
In assay [2] the target is Nonglycosylated human basigin ectodomain (BSG-2, E. coli-expressed) (human).
Assay [3] addresses Human IgG1 CR3022 antibody (human).

Sequence of Human IgG1 CR3022 antibody (human) (heavy, as listed by the source, chain 1 of 2): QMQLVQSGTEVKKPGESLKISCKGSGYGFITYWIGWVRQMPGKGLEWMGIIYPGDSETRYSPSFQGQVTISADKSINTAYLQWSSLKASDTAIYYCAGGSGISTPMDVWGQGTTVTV
Sequence of Human IgG1 CR3022 antibody (human) (light, as listed by the source, chain 2 of 2): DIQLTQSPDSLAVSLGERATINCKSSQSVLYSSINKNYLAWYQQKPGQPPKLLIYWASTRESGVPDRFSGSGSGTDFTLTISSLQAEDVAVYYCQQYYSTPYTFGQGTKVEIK

For “Plasmodium falciparum reticulocyte-binding protein homolog 5 (recombinant RH5) (from UniProt Q8IFM5 26-526) (ligand)”, the figures for the dissociation constant Kd in assay [1] and in assay [2] were 665 nM and 925 nM, respectively.

In the case of “SARS-CoV-2 spike receptor binding domain (from UniProt P0DTC2 319-541) (domain or fragment)”, the Kd in assay [3] was found to be 190 nM.

By Kd is commonly meant a measure of binding affinity in units of concentration. Lower therefore signals higher affinity.
